In US20100297606A1:

Target: humanized anti-human IL-6 receptor monoclonal IgG antibody MRA (tocilizumab), untreated
Assay: dot blot of untreated MRA on nitrocellulose (1.5 to 100 ng per spot), biotinylated peptide with HRP-conjugated streptavidin

## Fc-III peptide
  detection limit: 6 ng/spot
